Here are results for one molecule from patent US20260062488A1 (AbbVie / Abbott, published 2026).

Assay [1] addresses T1, human FcγRI extracellular domain protein (human, UniProt P12314 16-292).
T1 construct: extracellular domain; also called hFcγRI
The assay can be described thus: SPR (Biacore), N = 1. (In general: Surface plasmon resonance follows binding to a sensor surface in real time, without labels.)

The target of assay [2] is T2, human FcγRIIa (R131) extracellular domain protein (human, UniProt P12318 34-217).
T2 construct: extracellular domain; also called hFcγRIIa (R131); FcγRIIa 131R
T2 sequence (looked up): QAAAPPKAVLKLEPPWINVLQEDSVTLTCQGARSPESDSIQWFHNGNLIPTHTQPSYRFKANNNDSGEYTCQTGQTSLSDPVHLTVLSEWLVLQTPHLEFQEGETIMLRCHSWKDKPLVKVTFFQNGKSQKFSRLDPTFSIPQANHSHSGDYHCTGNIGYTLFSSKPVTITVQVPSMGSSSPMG
Description: SPR (Biacore), N = 1.

Assay [3] has as its target T3, human FcγRIIb extracellular domain protein (human, UniProt P31994 43-217).
T3 construct: extracellular domain; also called hFcγRIIb
T3 sequence (looked up): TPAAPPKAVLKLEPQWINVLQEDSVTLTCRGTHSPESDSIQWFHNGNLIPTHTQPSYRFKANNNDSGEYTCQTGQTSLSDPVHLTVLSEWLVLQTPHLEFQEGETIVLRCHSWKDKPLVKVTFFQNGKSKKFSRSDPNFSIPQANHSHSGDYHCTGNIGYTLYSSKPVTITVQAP
Description: SPR (Biacore), N = 1.

Assay [4] deals with T4, human FcγRIIIa (F158) extracellular domain protein (human, UniProt P08637 17-208).
T4 construct: extracellular domain; also called hFcγRIIIa (F158); FcγRIIIa158F
T4 sequence (P08637 17-208): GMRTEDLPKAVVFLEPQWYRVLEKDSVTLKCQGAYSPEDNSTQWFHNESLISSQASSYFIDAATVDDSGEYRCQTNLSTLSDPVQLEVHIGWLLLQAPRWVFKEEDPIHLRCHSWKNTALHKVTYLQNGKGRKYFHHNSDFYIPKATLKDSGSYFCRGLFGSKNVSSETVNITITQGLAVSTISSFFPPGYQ
The assay can be described thus: SPR (Biacore), N = 1.

Assay [5] concerns the target T5, human FcγRIIIa (V158) extracellular domain protein (human, UniProt P08637 17-208).
T5 construct: extracellular domain; also called hFcγRIIIa (V158); FcγRIIIa158V
Description: SPR (Biacore), N = 1.

In assay [6] the target is T6, cynomolgus α4β7 integrin (cynomolgus monkey).
T6 construct: whole, on cells; On CHOK1-cα4β7 cells or cynomolgus blood lymphocytes; also called cα4β7; cyno α4β7
Description: FACS, cyno CD8+ memory. A general note: In flow cytometry, cells or beads pass a laser one at a time.

Assay [7] has as its target T7, rabbit α4β7 integrin (rabbit).
T7 construct: whole, on cells; On rabbit PBMCs
Description: FACS, rabbit CD4+ T cells.

Assay [8] addresses T6, cynomolgus α4β7 integrin. Description: FACS, cynomolgus lymphocytes.
Assay [9] deals with T6, cynomolgus α4β7 integrin. The assay can be described thus: FACS, cyno CD4+ naïve T cells.
Assay [10] has as its target T6, cynomolgus α4β7 integrin. The assay can be described thus: FACS, cyno total CD8+ T cells.
The target in assay [11] is T6, cynomolgus α4β7 integrin. The assay can be described thus: FACS, cynomolgus CD4+ T cells.
Assay [12] addresses T6, cynomolgus α4β7 integrin. Description: binding to cyno CD4+ Tm cells.
For assay [13], the target named is T6, cynomolgus α4β7 integrin. Description: FACS, cyno CD4+ memory T cells.
Assay [14] deals with T6, cynomolgus α4β7 integrin. Description: binding, cynomolgus CD4+ memory T cells, summary table.
Assay [15] has as its target T8, human FcRn ECD protein (human, UniProt P55899 24-297; P61769 21-119).
T8 construct: extracellular domain
Description: SPR (Biacore), antibody immobilised, FcRn injected, pH 6.0, steady state; pH 6.0.

The target in assay [16] is T9, cynomolgus FcRn ECD protein (cynomolgus monkey, UniProt Q8SPV9 24-297; Q8SPW0 21-119).
T9 construct: extracellular domain
T9 sequence (Q8SPV9 24-297 limits assumed, chain 1 of 2): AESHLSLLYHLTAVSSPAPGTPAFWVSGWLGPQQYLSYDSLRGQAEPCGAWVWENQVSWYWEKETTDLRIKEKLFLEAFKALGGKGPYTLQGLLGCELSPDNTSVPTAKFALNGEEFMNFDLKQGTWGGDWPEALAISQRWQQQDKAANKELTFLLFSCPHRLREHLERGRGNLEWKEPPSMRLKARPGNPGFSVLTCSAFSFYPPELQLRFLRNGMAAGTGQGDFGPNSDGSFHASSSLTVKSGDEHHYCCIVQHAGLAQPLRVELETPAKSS
T9 sequence (Q8SPW0 21-119 limits assumed, chain 2 of 2): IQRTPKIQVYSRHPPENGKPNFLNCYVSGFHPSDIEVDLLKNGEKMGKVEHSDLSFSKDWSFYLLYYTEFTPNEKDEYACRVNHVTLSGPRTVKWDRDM
The description is as above.

Assay [17] addresses T10, FcgRIIA H131 (human, UniProt P12318).
T10 construct: cell surface, on engineered CHO-K1 cells; the list of molecules has only an FcγRIIa on CHO-K1 cells without the variant; also called human FcγRIIa (H131) on CHO-K1 cells
T10 sequence (receptor chain, looked up): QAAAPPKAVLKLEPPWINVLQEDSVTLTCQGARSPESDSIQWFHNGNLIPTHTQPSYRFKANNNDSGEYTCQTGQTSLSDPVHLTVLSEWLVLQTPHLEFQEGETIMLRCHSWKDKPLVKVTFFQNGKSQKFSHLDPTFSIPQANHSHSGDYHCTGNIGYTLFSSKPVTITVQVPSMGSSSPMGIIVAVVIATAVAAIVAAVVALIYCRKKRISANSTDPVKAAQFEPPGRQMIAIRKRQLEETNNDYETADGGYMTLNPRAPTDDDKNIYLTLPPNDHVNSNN
The assay can be described thus: flow cytometry on CHO-K1 cells expressing the receptor (curve FcgRIIA H131), monomeric antibody, F(ab')2 anti-human IgG AF647; N=1.

Assay [18] deals with T11, FcgRIIIB NA1 (human, UniProt O75015).
T11 construct: cell surface, on engineered CHO-K1 cells; the list of molecules has only an FcγRIIIb on CHO-K1 cells without the allotype; also called human FcγRIIIb (NA1) on CHO-K1 cells
T11 sequence (O75015 other isoform, or with tags, fused parts or gaps limits assumed): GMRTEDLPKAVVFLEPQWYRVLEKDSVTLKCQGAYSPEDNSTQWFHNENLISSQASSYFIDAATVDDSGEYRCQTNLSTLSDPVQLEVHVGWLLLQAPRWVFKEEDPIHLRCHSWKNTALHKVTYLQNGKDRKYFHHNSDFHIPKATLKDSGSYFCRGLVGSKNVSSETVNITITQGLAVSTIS
The assay can be described thus: flow cytometry on CHO-K1 cells expressing the receptor (curve FcgRIIIB NA1), monomeric antibody, F(ab')2 anti-human IgG AF647; N=1.

Assay [19] has as its target T12, FcgRIIIB NA2 (human, UniProt O75015).
T12 construct: cell surface, on engineered CHO-K1 cells; the list of molecules has only an FcγRIIIb on CHO-K1 cells without the allotype; also called human FcγRIIIb (NA2) on CHO-K1 cells
The assay can be described thus: flow cytometry on CHO-K1 cells expressing the receptor (curve FcgRIIIB NA2), monomeric antibody, F(ab')2 anti-human IgG AF647; N=1.

Assay [20] deals with T13, human FcγRIIIa (V176) on CHO-K1 cells (human, UniProt P08637 17-254).
T13 construct: whole, on cells; also called V158
T13 sequence (P08637 17-254 F176V limits assumed): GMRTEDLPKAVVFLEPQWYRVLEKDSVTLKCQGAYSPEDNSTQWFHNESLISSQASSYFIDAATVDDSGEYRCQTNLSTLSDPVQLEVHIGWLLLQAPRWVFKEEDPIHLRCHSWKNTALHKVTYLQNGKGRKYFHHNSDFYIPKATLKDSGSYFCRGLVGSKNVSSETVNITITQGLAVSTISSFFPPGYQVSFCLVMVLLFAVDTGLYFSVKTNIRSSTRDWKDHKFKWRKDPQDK
Description: flow cytometry on CHO-K1 cells expressing the receptor (curve FcgRIIIA V176), monomeric antibody, F(ab')2 anti-human IgG AF647; N=1.

T12 sequence (O75015 17-200 N65S limits assumed): as the sequence (O75015 other isoform, or with tags, fused parts or gaps limits assumed) above, with R20S, N49S, D66N, V90I counted along it
T5 sequence (P08637 17-208 F176V limits assumed): as the sequence (P08637 17-208) above, with F160V counted along it
T1 sequence (P12314 16-292): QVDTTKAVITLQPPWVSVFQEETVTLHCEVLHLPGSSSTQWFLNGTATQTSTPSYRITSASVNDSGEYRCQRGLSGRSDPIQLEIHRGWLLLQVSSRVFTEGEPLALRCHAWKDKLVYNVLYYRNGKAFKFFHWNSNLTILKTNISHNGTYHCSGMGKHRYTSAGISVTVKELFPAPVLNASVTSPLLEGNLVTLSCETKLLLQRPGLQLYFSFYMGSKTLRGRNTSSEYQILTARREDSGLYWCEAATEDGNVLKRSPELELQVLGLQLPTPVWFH
T8 sequence (P55899 24-297 limits assumed, chain 1 of 2): as the sequence (Q8SPV9 24-297 limits assumed, chain 1 of 2) above, with D39N, Q44E, S99G, G189S, N190S, M217L, T269S counted along it
T8 sequence (P61769 21-119 limits assumed, chain 2 of 2): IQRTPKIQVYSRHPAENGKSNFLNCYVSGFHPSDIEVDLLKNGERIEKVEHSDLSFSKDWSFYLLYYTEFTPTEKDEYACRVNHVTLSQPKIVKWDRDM

B1: Ab-h1.9d-WT (antibody, human IgG1, kappa)
heavy: not shown
light: DIQMTQSPSSLSASVGDRVTITCHASQDISDNIGWLQQKPGKSFKLLIYHGTNLEDGVPSRFSGSGSGTDYTLTISSLQPEDFATYYCVQYAQFPWTFGGGTKVEIKRTVAAPSVFIFPPSDEQLKSGTASVVCLLNNFYPREAKVQWKVDNALQSGNSQESVTEQDSKDSTYSLSSTLTLSKADYEKHKVYACEVTHQGLSSPVTKSFNRGEC
notes: IgG1/kappa with D356E and L358M (EU); also called Anti-human α4β7 (AC-166667) hu IgG1/k WT mAb
For orientation: Kd means a measure of binding affinity in units of concentration. A low value points to a tighter complex. By EC50 is commonly meant the concentration at which the effect is half-maximal. As to B1, the Kd is 7 nM in [1]; 5200 nM in assay [2]; 12000 nM in assay [3]; 3100 nM in assay [4]; 100 nM in assay [5]; 3300 nM in assay [15]. Also, in [16], binding was characterised by a dissociation constant (Kd) of 2200 nM. Besides, the EC50 turned out to be 0.036 nM in assay [6]; 0.097 nM in [7]; 0.062 nM in [8]; 0.045 nM in [9]; 0.035 nM in assay [10]; 0.03 nM in assay [11]. Also, the EC50 in assay [12], in assay [13] and in assay [14] was 0.01 nM each time. Moreover, the binding result in assay [17], in assay [18], in [19] and in assay [20] was “binds” in each case.
